Source: the supplement of paper PMC12764529
± gives the half width of the 95% confidence interval.

How the values were obtained:
[1] = folding stability dG unfold from trypsin proteolysis; higher = more stable
In short: (§1)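 How resistant each design was to proteolysis was captured as K50, inferred by Bayesian fitting of sequencing counts. Unfolding free energy was then derived relative to a sequence-predicted unfolded-state K50 and a shared folded-state K50, per protease or combined. Digestion used trypsin and chymotrypsin at 11 threefold-diluted concentrations plus a no-protease condition, on mini-proteins under 80 residues without cysteine in a PA-tagged cDNA display construct. Designs were kept only when AlphaFold2 dimer inter-PAE was above 15.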

[2] = folding stability dG unfold from chymotrypsin proteolysis; higher = more stable
In short: as §1

[3] = folding stability dG unfold (combined trypsin and chymotrypsin); higher = more stable
In short: as §1

Sequence	folding stability dG unfold [1]	folding stability dG unfold [2]	folding stability dG unfold [3]
SKGKKTVTINFMLKVEDPEDLPPGQEVKIPPEFIDFLRDQGFKITEIKIRVVPPPDGDVYVMFSSTIEVDSA [r9_465_TrROS]	1.99 ± 0.097 kcal/mol	3.53 ± 0.1 kcal/mol	2.88 ± 0.34 kcal/mol
SAGGEEVTIKLSDELRDLVPDAEIRVERLEDGTLRIEIRVRLPAPEPPEPVERREERRVEVRVEVRLESAGG [r13_129_TrROS_Hall]	1.98 ± 0.16 kcal/mol	2.22 ± 0.22 kcal/mol	2.14 ± 0.13 kcal/mol
SAGGSAGGSAFTIHDLKLNKVEVHPDGTVTYHLEVTLPSGEKLKVVVLVDPRKPSLATFYFSSAGGSAGGSA [r18_97_TrMRF]	2.31 ± 0.2 kcal/mol	3.31 ± 0.057 kcal/mol	2.94 ± 0.13 kcal/mol
SAGGMMKLELEIEKEDGKKYKIEVEYNKEEPVLKIKIYDKNGKKIKEIEIKAKSLEEALEAAKKLLKSAGGS [r16_158_TrROS_Hall]	3.3 ± 0.14 kcal/mol	3.99 ± 0.2 kcal/mol	3.68 ± 0.22 kcal/mol
SMTVVTVEKTPDGGVTITVYVPETGEEVEIPVTDPEVQKKATEDPNTTVKVPKEVLESFYPDRITSLSYTSA [r9_390_JUSTAS]	0.134 ± 0.098 kcal/mol	-0.169 ± 0.22 kcal/mol	0.0747 ± 0.19 kcal/mol
SAGGSAGGSKPDEVEVIEIKVPPGARVRLPDGSVVEIKPGDPNTTYRIVVDKKNKKITIEPLDSAGGSAGGS [r12_338_TrROS_Hall]	1.38 ± 0.12 kcal/mol	1.43 ± 0.12 kcal/mol	1.46 ± 0.27 kcal/mol
SAGKKKKFKIVSVEVEVKEVNGKLVIKMKVKDKKTGKTYEITMTLKVVDKKTKKTYTKTLKVTIKLPKSAGG [r19_129_TrROS_Hall]	3.46 ± 0.15 kcal/mol	4.44 ± 0.16 kcal/mol	4.04 ± 0.4 kcal/mol
SAGGIAEAIGEAIAKAPGVAEVEVDIEITKIEPTPGDGAYAHIDIRVRARHPVTGEEVELRFDIVFPLDSAG [r5_176_TrMRF]	2.89 ± 0.14 kcal/mol	3.18 ± 0.15 kcal/mol	3.05 ± 0.17 kcal/mol
SAGDRIRITMPFDDLRKIMDEIGYPPEQMTAEEFADRLAEHFPGVKVDIEMDREDGYFTVEIELPPGMKSAG [r5_264_TrROS]	1.43 ± 0.062 kcal/mol	1.43 ± 0.041 kcal/mol	1.42 ± 0.18 kcal/mol
SAKAELEIKFPGWKVTVEIEDVDPKNDMVKLKAFFRNGWVFTQTVNPDDGKIEIPIIPVKPDPDGKWKFSAG [r14_466_TrROS]	1.21 ± 0.032 kcal/mol	1.38 ± 0.096 kcal/mol	1.35 ± 0.091 kcal/mol
SAGGSAGGSAGGSMKIELPEGAEITEIKKLPNGTYEMTIRVDGKELKIRFVDGKLVIVPSAGGSAGGSAGGS [r4_280_TrROS_Hall]	3.62 ± 0.14 kcal/mol	3.51 ± 0.057 kcal/mol	3.56 ± 0.077 kcal/mol
SAKIVVKLPEKPKVAVIEFPPGMTKEEILKALEEVPGLSEEEREALKKKIEELEALAKNPELLKKLEEESAG [r14_732_TrROS_Hall]	-0.378 ± 0.087 kcal/mol	1.19 ± 0.051 kcal/mol	0.797 ± 0.12 kcal/mol
SAAEPPPVYLVRITVKVPPGVKPLPPGAVVTYDPATGTLTVYVLMTADEIDALAAAPGVEITDIEVIKLDSA [r9_827_TrROS_Hall]	3.16 ± 0.22 kcal/mol	4.94 ± 0.28 kcal/mol	4.59 ± 0.24 kcal/mol
SAGGMTPEEKEEIAKKFAEELLKKLKEGDPNVKVETEVDPEKGVVKIKVINLNTKKPKTIEIPFSELASAGG [r13_354_TrMRF]	1.76 ± 0.052 kcal/mol	1.83 ± 0.034 kcal/mol	1.77 ± 0.1 kcal/mol
SAGGSAGGMKEGETRTITFWANVKPGDLEKIANHMMKFGWPIKKVDIKRHPENGMVRVSITIRKSAGGSAGG [r6_514_TrROS]	2.21 ± 0.025 kcal/mol	2.56 ± 0.045 kcal/mol	2.43 ± 0.052 kcal/mol
SAKTLTIEELAKKLKEELEKKTGKKLSKEELKKKALELAKKLAEEKGLKIKSVKVEEKDGKLTVTVEVESAG [r14_147_TrROS_Hall]	3.2 ± 0.16 kcal/mol	3.26 ± 0.082 kcal/mol	2.84 ± 0.15 kcal/mol
SAGGSAGGKKYRVVVYNPETGEWVEVEEVEFDPETGEVRVRLPGSGKEVTIPKDYPVYLNPELDSAGGSAGG [r6_884_TrMRF]	2.21 ± 0.035 kcal/mol	3.163 ± 0.03 kcal/mol	2.9 ± 0.045 kcal/mol
SAGGMPDITEVELLDVEYDPETGTYRFRVKVKLKDGTEREVEIPFVDEDGDFGIEEILKAAEELVEESAGGS [r16_221_TrMRF]	2.71 ± 0.14 kcal/mol	4 ± 0.045 kcal/mol	3.66 ± 0.18 kcal/mol
SAGGSNVEVERHPDGHMTFTFPDEDGKDVKITIHMHPDGMYMIRVPGNNQPIYFPPGQSIEDLLKLSAGGSA [r2_338_TrROS]	2.2 ± 0.069 kcal/mol	2.88 ± 0.032 kcal/mol	2.63 ± 0.098 kcal/mol
SAGGSAGGSMITLTLPDEEALRAYVEQLVADAGTEITEVTVTPLAPDTVEAEVSIDPTDPVGLSAGGSAGGS [r12_647_JUSTAS]	1.09 ± 0.022 kcal/mol	0.426 ± 0.065 kcal/mol	0.858 ± 0.098 kcal/mol
SAGGSAPMFEIWFRDPEAIEKLLEESGFPVSIERFPNDPNWVKITIFMKGPMEEAQDKLREALGLESAGGSA [r15_118_TrROS]	2.29 ± 0.04 kcal/mol	2.95 ± 0.014 kcal/mol	2.74 ± 0.036 kcal/mol
SAGGSAGGSAGGSKKEKYYLVTRIEVEVNGKKYPLGSKLPKNLPPGAKIKIETRIVKLDSAGGSAGGSAGGS [r4_436_TrROS_Hall]	2.35 ± 0.15 kcal/mol	1.58 ± 0.071 kcal/mol	1.83 ± 0.25 kcal/mol
